This is an account of results in patent publication US20130259878A1 (OXFORD BIOTHERAPEUTICS, published 2013).

Substitutions are numbered along the chain they refer to.

The target in experiment [1] is T1, human Cadherin-17 (CDH17), cell-surface, endogenous on human cancer cells (human, UniProt Q12864 23-832).
T1 construct: Endogenous CDH17 on LoVo, LS174T and SNU-1 cells and in human tumor tissue sections; also called liver-intestine cadherin; LI-cadherin
T1 sequence: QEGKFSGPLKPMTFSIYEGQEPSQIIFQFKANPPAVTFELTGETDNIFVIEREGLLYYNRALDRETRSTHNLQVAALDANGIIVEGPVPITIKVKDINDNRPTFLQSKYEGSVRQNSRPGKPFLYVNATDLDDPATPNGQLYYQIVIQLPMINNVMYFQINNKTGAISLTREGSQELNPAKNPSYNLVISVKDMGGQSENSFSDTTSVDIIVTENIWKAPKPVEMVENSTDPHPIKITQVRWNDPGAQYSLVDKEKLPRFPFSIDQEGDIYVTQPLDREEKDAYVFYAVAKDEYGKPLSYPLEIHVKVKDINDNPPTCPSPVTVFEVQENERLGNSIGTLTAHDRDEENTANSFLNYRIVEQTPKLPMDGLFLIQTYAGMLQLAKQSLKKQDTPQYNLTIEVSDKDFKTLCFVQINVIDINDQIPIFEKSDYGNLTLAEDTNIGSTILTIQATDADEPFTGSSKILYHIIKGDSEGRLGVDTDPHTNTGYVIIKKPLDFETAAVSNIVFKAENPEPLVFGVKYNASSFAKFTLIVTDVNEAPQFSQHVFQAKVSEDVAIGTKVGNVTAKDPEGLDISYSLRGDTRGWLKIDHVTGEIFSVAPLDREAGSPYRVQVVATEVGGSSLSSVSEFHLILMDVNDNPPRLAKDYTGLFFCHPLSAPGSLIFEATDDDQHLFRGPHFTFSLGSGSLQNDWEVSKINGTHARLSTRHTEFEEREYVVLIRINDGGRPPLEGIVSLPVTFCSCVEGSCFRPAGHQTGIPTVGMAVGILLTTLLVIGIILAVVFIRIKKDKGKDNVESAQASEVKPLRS
Nature of the experiment: flow cytometry on LoVo cells, antibody titration.

The target in experiment [2] is T2, CDH17 human full length Flag tagged antigen, transfected into HEK293 cells (human, UniProt Q12864 23-832).
T2 construct: The Flag tag may sit at either end; also called Flag tagged Human CDH17; human CDH17; not shown: Flag tag
T2 sequence: T1 sequence
Kind of experiment: flow cytometry on HEK293 cells transiently transfected with Flag tagged human CDH17; panel 'CDH17 Human Flag Tag analyzed with CDH17_A4_4K'. On the procedure:
(§1) The humanized monoclonal antibodies, CDH17_A4_{—}4K and CDH17_A4_{—}4R were incubated with cells on ice for 1 hour and then washed twice with cold FACS buffer and re-suspended in 100 ul FACS buffer per well. A secondary antibody was added at 1 ug/ml along with goat anti-mouse H+L PE (Southern Biotech) for Anti-flag and mouse isotype control and goat anti-human H+L PE (Southern Biotech) for human isotype control. The plate was then incubated for 1 hour after which was washed three times with FACS buffer and re-suspended 150 ul FACS buffer per well. 50 ul of 4% paraformaldehyde was then added to fix the cells before storing the plate overnight at 4 degrees C. The sample were then run on Guava EasyCyte Flow Cytometer HT plus and the data analyzed using the Guava Cytosoft software suite.
(In general: A flow cytometer gives signals particle by particle.)

Experiment [3] concerns the target T2, CDH17 human full length Flag tagged …. Kind of experiment: flow cytometry on HEK293 cells transiently transfected with Flag tagged human CDH17; panel 'CDH17 Human Flag Tag analyzed with CDH17_A4_4R'. The procedure: as §1

B1: CDH17_A4 monoclonal antibody (Fab, V domains shown)
VH: EVQLQQSVAELVKPGASVKMSCKVSGYTLTDHTIHWMKQRPEQGLEWIGYIYPRDGITGYNEKFKGKATLTADTSSSTAYMQLNSLTSEDSAVYFCARWGYSYRNYAYYYDYWGQGTTLTVSS
VL: DIVMSQSPSSLAVSVGEKVTMSCKSSQSLLHSSNQKNYLAWYQQKPGQSPKVLIYWASTRESGVPDRFTGSGSGTDFTLTITSVKSEDLAVYYCQQYYSYPWTFGGGTRLEIK
notes: also called CHD17_A4
Consider B1, for which the binding result in experiment [1] was “binds”.

B2: humanized CDH17_A4-4K monoclonal antibody (antibody, V domains shown)
VH: QVQLVQSGAEVKKPGASVKVSCKASGYTLTDHTIHWMRQAPGQRLEWIGYIYPRDGITGYNEKFKGKATLTADTSASTAYMELSSLRSEDTAVYYCARWGYSYRNYAYYYDYWGQGTLVTVSS
VL: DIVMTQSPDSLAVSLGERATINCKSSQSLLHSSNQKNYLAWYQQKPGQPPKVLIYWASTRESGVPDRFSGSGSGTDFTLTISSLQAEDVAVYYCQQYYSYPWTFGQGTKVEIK
notes: It was detected with an anti-human IgG secondary in the HumZAP assay
A word on the EC50: it is the concentration needed to bring the measured effect to its halfway point. The low end stands for an effect from little substance, the high end for a need for much substance. Take B2: in experiment [2], the EC50 worked out at 0.14 nM.

B3: humanized CDH17_A4-4R monoclonal antibody (antibody, V domains shown)
VH: B2 VH with K63R, K65R
VL: DIVMTQSPDSLAVSLGERATINCRSSQSLLHSSNQRNYLAWYQQKPGQPPKVLIYWASTRESGVPDRFSGSGSGTDFTLTISSLQAEDVAVYYCQQYYSYPWTFGQGTKVEIK
notes: as for B2
On to B3, for which the EC50 in experiment [3] was 0.13 nM. This counts as sub-nanomolar.
